From patent publication US20190100588A1 (VISTERRA, published 2019)
Numbering of substitutions follows the chain as printed.

Experiments:
Pep5 = biological target: T1, Pep5 (human); experiment: peptide binding ELISA
T1 construct: also called Peptide 5
T1 peptide: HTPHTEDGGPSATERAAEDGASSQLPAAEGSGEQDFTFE
Protocol: (§1) As above, the monoclonal antibodies were tested for binding to a series of CD138 peptides in four-fold serial dilutions starting at 1 μg/mL. […] HRP-conjugated anti-human IgG-Fc antibody (1:5000 dilution) was used for detection. Antibody B-B4 was also tested as a reference. […] Reference antibody B-B4 only bound to Peptide 2a.

[1] = biological target: T2, recombinant CD138 extracellular domain (soluble CD138) (human, UniProt P18827 23-250); experiment: ELISA, recombinant CD138 extracellular domain
T2 construct: also called soluble CD138 extracellular domain; biotinylated CD138
T2 sequence: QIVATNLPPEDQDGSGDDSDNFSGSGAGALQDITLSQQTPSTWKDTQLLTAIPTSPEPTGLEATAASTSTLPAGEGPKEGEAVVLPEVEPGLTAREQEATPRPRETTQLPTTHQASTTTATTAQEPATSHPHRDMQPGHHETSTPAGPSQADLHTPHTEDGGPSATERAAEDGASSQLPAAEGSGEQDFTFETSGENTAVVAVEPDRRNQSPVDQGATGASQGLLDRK
Protocol: (§2) Antibody B-B4 was included as a reference. Briefly, the monoclonal antibodies were tested for binding to recombinant CD138 extracellular domain consisting of amino acids 23-254 of human CD138, in four-fold serial dilutions starting at 1 μg/mL. HRP-conjugated anti-human IgG-Fc antibody (1:5000 dilution) was used for detection.

mutated CD138 Clone 1 = biological target: T3, mutated CD138 Clone 1 (human, UniProt P18827 23-310); experiment: staining of Expi293 cells expressing the CD138 variant
T3 construct: Leu107, Pro108, Glu109 of the original site mutated to Ala; Expressed on Expi293 cells
T3 chain: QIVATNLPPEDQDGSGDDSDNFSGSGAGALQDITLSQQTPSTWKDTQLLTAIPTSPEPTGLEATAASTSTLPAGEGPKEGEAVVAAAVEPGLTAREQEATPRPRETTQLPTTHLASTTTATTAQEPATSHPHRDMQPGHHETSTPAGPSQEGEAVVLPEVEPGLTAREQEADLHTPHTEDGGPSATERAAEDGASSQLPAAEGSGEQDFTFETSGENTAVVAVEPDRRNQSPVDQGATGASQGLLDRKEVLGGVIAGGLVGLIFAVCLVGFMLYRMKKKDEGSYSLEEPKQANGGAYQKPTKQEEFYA

mutated CD138 Clone 4 = biological target: T4, mutated CD138 Clone 4 (human, UniProt P18827 23-310); experiment: as above
T4 construct: Leu107, Pro108, Glu109 mutated to Ala; Expressed on Expi293 cells
T4 chain: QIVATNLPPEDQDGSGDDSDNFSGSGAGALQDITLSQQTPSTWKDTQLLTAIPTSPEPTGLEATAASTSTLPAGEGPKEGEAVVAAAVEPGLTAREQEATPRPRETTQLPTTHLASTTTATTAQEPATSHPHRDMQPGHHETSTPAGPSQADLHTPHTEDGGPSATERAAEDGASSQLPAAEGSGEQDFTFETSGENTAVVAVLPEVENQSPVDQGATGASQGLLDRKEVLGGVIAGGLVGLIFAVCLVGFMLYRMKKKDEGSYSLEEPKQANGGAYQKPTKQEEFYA

mutated CD138 Clone 5 = biological target: T5, mutated CD138 Clone 5 (human, UniProt P18827 23-310); experiment: as above
T5 construct: Leu107, Pro108, Glu109 mutated to Ala; Expressed on Expi293 cells
T5 chain: T4 chain with L204E, E206D, V207R, E208R, S211L, V213E, D214V, Q215E

mutated CD138 Clone 2 = biological target: T6, mutated CD138 Clone 2 (human, UniProt P18827 23-310); experiment: as above
T6 construct: Leu107, Pro108, Glu109 mutated to Ala; Expressed on Expi293 cells
T6 chain: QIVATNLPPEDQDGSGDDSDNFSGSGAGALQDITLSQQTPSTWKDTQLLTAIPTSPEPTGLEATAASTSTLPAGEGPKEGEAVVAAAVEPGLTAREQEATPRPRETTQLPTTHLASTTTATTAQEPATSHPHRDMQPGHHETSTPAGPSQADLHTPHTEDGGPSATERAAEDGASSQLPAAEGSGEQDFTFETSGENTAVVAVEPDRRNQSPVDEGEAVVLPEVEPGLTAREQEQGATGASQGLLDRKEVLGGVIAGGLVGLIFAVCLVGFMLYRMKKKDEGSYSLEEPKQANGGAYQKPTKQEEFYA

Peptide 6B [2] = biological target: T7, Peptide 6B (human, biotin at the amino terminus); experiment: bio-layer interferometry, biotinylated peptide
T7 construct: also called Pep6b
T7 peptide: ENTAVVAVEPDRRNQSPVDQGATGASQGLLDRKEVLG

Peptide 2a [3] = biological target: T8, Peptide 2a (human); experiment: peptide binding ELISA
T8 construct: also called Pep2a
T8 peptide: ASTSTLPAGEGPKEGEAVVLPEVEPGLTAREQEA
Protocol: as §1

Peptide 2C = biological target: T9, Peptide 2C (human, biotin at the amino terminus); experiment: bio-layer interferometry, biotinylated peptide
T9 construct: also called Pep2c
T9 peptide: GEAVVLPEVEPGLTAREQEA

Peptide 6E = biological target: T10, Peptide 6E (human, biotin at the amino terminus); experiment: bio-layer interferometry, biotinylated peptide
T10 construct: also called Pep6e
T10 peptide: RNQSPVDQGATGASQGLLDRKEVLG

Pep6 [4] = biological target: T11, Pep6 (human); experiment: peptide binding ELISA
T11 construct: also called Peptide 6; Peptide-6
T11 peptide: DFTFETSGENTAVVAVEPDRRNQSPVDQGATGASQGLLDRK
Protocol: as §1

[5] = biological target: T12, cell surface CD138 (human CD138) (human, UniProt P18827 23-310); experiment: flow cytometry, U266 cells
T12 construct: whole, on cells; also called membrane CD138
T12 sequence (looked up): T4 chain with A85L, A86P, A87E, L204E, E206D, V207R, E208R
Protocol: (§3) Binding of anti-CD138 antibodies to CD138 was tested by flow cytometry binding assay. Multiple myeloma cell lines RPMI 8226 (ATCC) and U266 (ATCC) were grown in RPMI1640 with 10% FBS. On the day of experiment, 0.25×10⁶ cells were washed with FACS buffer (PBS+0.5% BSA) and incubated with dilution series of anti-CD138 antibodies (starting 10 ug/ml) or hybridoma supernatants (starting with undiluted supernatant) for 30 min at 4° C. followed by incubation with goat-anti-human/mouse conjugated APC antibodies (BioLegend) for 30 min at 4° C. Fluorescence was detected using flow cytometer.
(§4) The afucosylated antibody variants were then tested for capacity to induce ADCC, as described above.

[6] = biological target: T2, recombinant CD138 extracellular domain …; experiment: ELISA, soluble CD138
Protocol: as §2

Peptide 6B [7] = biological target: T7, Peptide 6B; experiment: ELISA with captured antibody (FIG. 21); also bio-layer interferometry (FIG. 22A)
Protocol: Briefly, biotinylated peptides (Peptides 2A, 2D, 6B, and 6F; sequences shown in FIG. 22C) were used at 50 nM and captured on streptavidin capture biosensors. Antibodies were then run over the captured peptides at concentrations of 25 nM to 6.25 nM.

[8] = biological target: T12, cell surface CD138 (human CD138); experiment: flow cytometry, U266 cells, afucosylated antibody
Protocol: as §3, §4

Pep6 [9] = biological target: T11, Pep6; experiment: ELISA (FIG. 18C)
[10] = biological target: T2, recombinant CD138 extracellular domain …; experiment: ELISA (FIG. 18A)
Peptide 2a [11] = biological target: T8, Peptide 2a; experiment: ELISA (FIG. 18B)

B1: antibody CD002 (antibody, V domains shown)
VH: QVQLQQPGAELVKPGASVKLSCKASGFSFITYWMNWIKQRPGRGLEWIGRIHPSDSATQYNQKFKTKATLTVDKSSSTAYIQLSSLTSEDSAVYYCARSTEGAHWGQGTLVTVSA
VL: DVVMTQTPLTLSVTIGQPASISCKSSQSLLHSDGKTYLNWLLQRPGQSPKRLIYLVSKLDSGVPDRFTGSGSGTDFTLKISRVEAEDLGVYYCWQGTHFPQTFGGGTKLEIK
binding result (Pep5): binds
binding result [1]: binds

B2: antibody B-B4 (antibody, V domains shown)
VH: QVQLQQSGSELMMPGASVKISCKATGYTFSNYWIEWVKQRPGHGLEWIGEILPGTGRTIYNEKFKGKATFTADISSNTVQMQLSSLTSEDSAVYYCARRDYYGNFYYAMDYWGQGTSVTVSS
VL: DIQMTQSTSSLSASLGDRVTISCSASQGINNYLNWYQQKPDGTVELLIYYTSTLQSGVPSRFSGSGSGTDYSLTISNLEPEDIGTYYCQQYSKLPRTFGGGTKLEIK
notes: detected with anti-human IgG-Fc; afucosylated and biotinylated versions also used; also called B-B4-IgG1; MAb B-B4
binding result (mutated CD138 Clone 1): binds
binding result (mutated CD138 Clone 4): binds
binding result (mutated CD138 Clone 5): binds
binding result (mutated CD138 Clone 2): binds
binding result (Peptide 6B [2]): no binding
binding result (Peptide 2a [3]): binds

B3: antibody 1610 (antibody, V domains shown)
VH: QVQLHQPGTSLVKPGASVKLSCKASGYNFSSYYMHWVKQRPGQGLEWIGTIHPSDSTTNCNQKFKGKATLTVDKSSRTAYMQLNSLTFEDSAVYYCANFVYWGQGTSVTVSS
VL: DIVITQDELSNPVTSGDSVSISCRSSKSLLYKDGKTYLNWFLQRPGQSPQLLIYVVSTRASGVSDRFSGSGSGTDFTLEISRVKAEDVGVYYCQQLVEYPYTFGGGTKLEIK
notes: Chimeric monoclonal antibody, murine variable regions and human IgG1
binding result (Peptide 2C): binds
binding result (Peptide 6B [2]): binds
binding result (Peptide 6E): no binding
binding result (Peptide 2a [3]): binds
binding result (Pep6 [4]): binds
EC50 [5]: 0.0019 µg/mL
EC50 [6]: 0.394 µg/mL

B4: antibody 2810 (antibody, V domains shown)
VH: B3 VH with N28S, C60Y
VL: B3 VL
binding result (Peptide 6B [7]): binds
binding result [8]: binds
binding result (Pep6 [9]): binds
binding result [10]: binds
binding result (Peptide 2a [11]): binds
